In FireProtDB (doi:10.1038/75151):

B1: Cold shock protein CspB, P41016 (parent)
chain: MQRGKVKWFNNEKGYGFIEVEGGSDVFVHFTAIQGEGFKTLEEGQEVSFEIVQGNRGPQAANVVKL

Variants of: B1
Conditions: Bacillus caldolyticus, pH 7, Thermal, CD, Sodium cacodylate-HCl 0.1 M, reversible: yes, structure 1C9O, whole UniProt chain shown; for ddG of mutation (higher = less stable) / unfolding free energy: 70 °C

Variant	ddG of mutation (higher = less stable) (NaCl 2 M) [kJ/mol]	unfolding free energy (NaCl 2 M) [kJ/mol]	ddG of mutation (higher = less stable) [kJ/mol]	unfolding free energy [kJ/mol]	Tm [°C]	change of melting temperature, mutant - wild type (higher = more stable) [°C]	unfolding enthalpy (van 't Hoff) [kJ/mol]
N11S	-0.92	10.1	-1.38	5.9	79.2	2.3	246
G23Q	1.3	7.91	1.21	3.31	74.7	-2.2	249
L66E	5.31	3.89	–	–	–	–	–
L66A	0.293	8.91	–	–	–	–	–
T31S	-0.795	10	-0.711	5.19	77.8	0.9	250
Q53E	0	9.2	0.418	4.1	76.1	-0.8	246
R3E L66E	–	–	–	–	44.6	-32.3	154
R3E	4.18	5.02	–	–	59.1	-17.8	191
V64T	0.795	8.41	–	–	75.1	-1.8	244
Q2L	-1.21	10.4	-2.3	6.82	80.9	4	242
Y15F	-0.293	9.5	0.209	4.31	76.7	-0.2	237
E46A	0.502	8.7	0.92	3.6	75.4	-1.5	241
S24D	-0.795	10	-0.92	5.4	77.8	0.9	258
